The values below are quoted from earlier work in PMC8315802.

Read-outs that look alike come from different tables or passages of the source.

One may read the Kd as a measure of binding affinity in units of concentration.

The target of series [1] is actin filament (Oryctolagus cuniculus) (UniProt P68135).
Series [2] has the same target. This is another data set of the same source.
For series [3] the target is unchanged. This is another data set of the same source.

As for α-actinin CHD (from UniProt P05094), the dissociation constant Kd in series [1] is 4700 nM.
Take utrophin CHD (from UniProt P46939): the Kd in series [2] is 1500 nM.
Regarding Rng2 1-189 (from UniProt O14188), the dissociation constant (Kd) in series [3] is 900 nM.
